In patent US20250277029A1 (Amgen, published 2025):
Positions count from the first letter of the chain named. Numbers in names are those of the source.

B1: LIBC527997-1 (antibody, IgG1, V domains shown)
VH: QVQLQESGPGLVKPSQTLSLTCTVSGGSIRRGGDYWAWIRQHPGKGLEWIGHIYQTGSTNYNPRFKGRATISVNTYKNQFSLKLSSVTAADTAVYYCARNYDTLTGYSYYYYGMDVWGQGTTVTVSS
VL: DIQMTQSPSSLSASVGDRVTITCRASQSISNYLNWYQQKPGKAPKLLIYAASSLHSGVPSRFSGSGSGTDFTLTISSLQPEDFASYYCQQYQSYPLTFGQGTKVEIKR
B2: LIBC523797-1 (antibody, V domains shown)
VH: B1 VH with A37S, I53V, Q55Y, N60K, R64N, N100D, T103I
VL: DIVMTQSPLSLPVTPGEPASISCRSSQSLLTSYGINYVDWYLQKPGQSPQLLIYQGSNRASGVPDRFSGSGSGTDFTLKISRVEAEDVGVYYCRQAVGLPRTFGQGTKVEIKR
notes: Expressed as IgG1 SEFL2 mAb
B3: LIBC680562-1 (yeast-displayed Fab) (Fab, V domains shown)
VH: B1 VH
VL: DIQMTQSPSSLSASVGDRVTITCRASQSISSYLNWYQQKPGKAPKLLIYSARRLSSGVPSRFSGSGSGTDFTLTISSLQPEDFATYYCQQYAKSPITFGGGTKVEIKR
B4: LIBC681737-1 (yeast-displayed Fab) (Fab, V domains shown)
VH: B1 VH with I53V, Q55Y, G67D, L104V
VL: B3 VL with S12P, S55A, A92Y, K93H, S94P
notes: Original yeast clone without the LC P12S germline reversion; Monovalent Fab on yeast
B5: LIBC681593-1 (yeast-displayed Fab) (Fab, V domains shown)
VH: B1 VH
VL: B3 VL with S50N, S55G, A92R, K93S, I96V
B6: LIBC680812-1 (yeast-displayed Fab) (Fab, V domains shown)
VH: B1 VH with A37G, I53V, N60K, R64S, G67D
VL: B3 VL with A92R, K93S, S94Y
B7: LIBC680773-1 (yeast-displayed Fab) (Fab, V domains shown)
VH: B1 VH with I53V, Q55Y, G67D, L104V
VL: B3 VL with S50K, R53L, A92S, K93R, S94L, I96L
B8: LIBC680800-1 (yeast-displayed Fab) (Fab, V domains shown)
VH: B1 VH
VL: B3 VL with R53A, A92R, S94F, I96L
B9: LIBC681594-1 (yeast-displayed Fab) (Fab, V domains shown)
VH: B1 VH
VL: B3 VL with S50K, R53K, Y91F, A92G, K93S, S94M, I96L
B10: LIBC680574-1 (yeast-displayed Fab) (Fab, V domains shown)
VH: B1 VH with I53V, Q55Y, N60K, R64S, G67D
VL: B3 VL with S50G, S55G, A92S, K93S, S94L, I96V
B11: LIBC523797-1 (antibody, IgG1, V domains shown)
VH: B1 VH with A37S, I53V, Q55Y, N60K, R64N, N100D, T103I
VL: B2 VL
B12: 10D10 HC D83K/LC N35Y (26970-1) (antibody, V domains shown)
VH: QVQLQESGPGLVKPSQTLSLTCTVSGGSIRRGGDYWSWIRQHPGKGLEWIGYIYYSGSTNYNPSLKSRATISVKTSKNQFSLKLSSVTAADTAVYYCARDYDILTGYSYYYYGMDVWGQGTTVTVSS
VL: not shown
notes: Earlier 10D10 variant used as benchmark
B13: LIBC528116-1 (antibody, IgG1, V domains shown)
VH: B1 VH with I53V, Q55Y, G67D, L104V
VL: B1 VL with M4L, S10T
notes: also called 37940-4
B14: LIBC527912-1 (antibody, V domains shown)
VH: B1 VH with A37S, H52Y, S58Q, N60K, R64N, K66E, N100D, T103I
VL: B1 VL with M4L, N31S, H55R, S85T, Q92S, S93N, Q100G, K103R
B15: LIBC528131-1 (antibody, V domains shown)
VH: B1 VH with A37S, S58Q, N60A, R64N, F65L, K66E, N100D, T103I
VL: EIVLTQSPATLSLSPGERATLSCRASQSVSSYLGWYQQKPGQAPRLLIYGASSRATGIPDRFSGSGSGTDFTLTISRLEPEDFAVYYCQQYGSSPRTFGQGTKVEIKR
notes: VK3 LC
B16: LIBC527906-1 (antibody, V domains shown)
VH: B1 VH with A37G, R64N, G67D, N74D, N100D, T103I
VL: B1 VL with M4L, S10T
notes: also called LIBC527906-1 + VK1 germline fix(es)
B17: LIBC528141-1 (antibody, V domains shown)
VH: B1 VH with A37S, I53V, N60K, N100D, T103I
VL: B1 VL with M4L, S10T
B18: LIBC527968-1 (antibody, V domains shown)
VH: B1 VH with A37S, T56S, N60K, R64S, G67D, N100D, T103I
VL: B1 VL with M4L, S10T
notes: also called LIBC527968-1 + VK1 germline fix(es)
B19: LIBC527879-1 (antibody, V domains shown)
VH: B12 VH with S37G, Y52H, Y55Q, S64K, K74D, S76Y, L104F
VL: B1 VL with M4L, S30I, N31S, H55R, S85T, Q92S, S93N, Q100G, K103R
B20: LIBC528169-1 (antibody, V domains shown)
VH: B1 VH with A37S, T56S, N60K, R64S, K66E, G67D, N100D, T103I
VL: B1 VL with M4L, S10T
notes: also called LIBC528169-1 + VK1 germline fix(es)
B21: LIBC527984-1 (antibody, V domains shown)
VH: B1 VH with A37S, S58K, R64N, G67S, N100D, T103I
VL: B1 VL with S10T
notes: also called LIBC527984-1 + VK1 germline fix(es)

Biological target: T1, mouse CB1 (mouse, UniProt P47746 1-473)
T1 construct: also called muCB1; murine CB1
T1 sequence (P47746 whole entry): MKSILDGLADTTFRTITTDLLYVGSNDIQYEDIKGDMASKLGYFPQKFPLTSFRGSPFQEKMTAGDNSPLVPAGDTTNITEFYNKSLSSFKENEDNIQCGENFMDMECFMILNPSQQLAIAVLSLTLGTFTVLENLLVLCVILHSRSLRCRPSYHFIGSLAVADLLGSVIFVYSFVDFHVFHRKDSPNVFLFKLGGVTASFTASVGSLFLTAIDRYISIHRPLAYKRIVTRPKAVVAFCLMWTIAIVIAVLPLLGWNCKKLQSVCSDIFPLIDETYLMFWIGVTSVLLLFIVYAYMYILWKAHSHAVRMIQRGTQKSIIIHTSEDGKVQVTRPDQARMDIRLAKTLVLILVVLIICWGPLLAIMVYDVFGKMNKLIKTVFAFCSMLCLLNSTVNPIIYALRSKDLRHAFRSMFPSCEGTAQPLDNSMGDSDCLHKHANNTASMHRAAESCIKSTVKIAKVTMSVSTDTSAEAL
Experiment: binding to muCB1, fold over mock (method not described)

Row | Binder | Fold over mock [fold]
1 | B1 | 1

Biological target: human cannabinoid receptor 1 (huCB1), full length, expressed on cells (human, UniProt P21554 1-472)
Sequence (P21554 whole entry): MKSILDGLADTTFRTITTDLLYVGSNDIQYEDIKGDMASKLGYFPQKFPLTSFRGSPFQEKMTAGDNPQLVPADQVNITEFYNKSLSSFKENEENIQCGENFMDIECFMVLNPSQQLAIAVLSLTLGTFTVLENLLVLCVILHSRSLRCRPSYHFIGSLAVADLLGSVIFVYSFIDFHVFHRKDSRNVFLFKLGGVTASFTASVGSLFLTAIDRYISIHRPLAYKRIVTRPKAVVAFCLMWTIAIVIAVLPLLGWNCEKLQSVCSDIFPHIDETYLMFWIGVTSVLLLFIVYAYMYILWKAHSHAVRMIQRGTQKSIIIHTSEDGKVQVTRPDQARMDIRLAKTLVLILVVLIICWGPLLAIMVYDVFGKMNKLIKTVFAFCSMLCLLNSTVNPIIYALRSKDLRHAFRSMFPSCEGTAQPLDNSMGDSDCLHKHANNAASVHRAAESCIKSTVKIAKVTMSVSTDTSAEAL
Experiment: cell-based or functional assay

Row | Binder | Antagonist assay IC50 (nM), 2-AG [nM] | Antagonist assay IC50 (nM), Anandamide [nM] | Antagonist assay IC50 (nM), CP 55,940 [nM] | Inverse agonist assay IC50 [nM]
2 | B2 | 2.9 | 10.4 | 3.4 | 14.1

Biological target: empty nanodisc (Empty ND)
Sequence (P02647 79-267): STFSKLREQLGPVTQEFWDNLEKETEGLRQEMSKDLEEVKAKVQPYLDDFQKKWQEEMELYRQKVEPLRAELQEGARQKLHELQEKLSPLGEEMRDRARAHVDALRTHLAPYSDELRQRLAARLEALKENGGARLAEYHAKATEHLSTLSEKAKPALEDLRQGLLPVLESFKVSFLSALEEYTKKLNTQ
Experiment: flow cytometry, yeast-displayed Fab, 50 nM Empty ND, after background subtraction

Row | Binder | Relative binding fold change compared to LIBC528116 (Fab) [fold]
3 | B3 | 0.68
4 | B4 | 0.73
5 | B5 | 0.91
6 | B6 | 0.74
7 | B7 | 0.75
8 | B8 | 0.78
9 | B9 | 0.83
10 | B10 | 0.72

Biological target: T2, GFP-fused huCB1 in styrene maleic acid lipoparticles (CB1-SMALP-GFP) (human, UniProt P21554 1-472)
T2 construct: Prepared as described in Luna V. et al. 2018; also called huCB1-GFP-SMALP; GFP-tagged huCB1-SMALP; not shown: GFP fused to huCB1
T2 sequence (P21554 whole entry, the tested form may be a part): as the sequence (P21554 whole entry) above
Experiment: flow cytometry, yeast-displayed Fab, 2.5 nM CB1-SMALP-GFP, after background subtraction

Row | Binder | Relative binding fold change compared to LIBC528116 (Fab) [fold]
11 | B3 | 1.94
12 | B4 | 1.94
13 | B5 | 2.37
14 | B6 | 1.71
15 | B7 | 1.9
16 | B8 | 1.76
17 | B9 | 2.57
18 | B10 | 1.72

Biological target: T3, human cannabinoid receptor type 2 (CB2) (human, UniProt P34972 1-360)
T3 construct: also called huCB2; full length hu CB2
T3 sequence (P34972 whole entry): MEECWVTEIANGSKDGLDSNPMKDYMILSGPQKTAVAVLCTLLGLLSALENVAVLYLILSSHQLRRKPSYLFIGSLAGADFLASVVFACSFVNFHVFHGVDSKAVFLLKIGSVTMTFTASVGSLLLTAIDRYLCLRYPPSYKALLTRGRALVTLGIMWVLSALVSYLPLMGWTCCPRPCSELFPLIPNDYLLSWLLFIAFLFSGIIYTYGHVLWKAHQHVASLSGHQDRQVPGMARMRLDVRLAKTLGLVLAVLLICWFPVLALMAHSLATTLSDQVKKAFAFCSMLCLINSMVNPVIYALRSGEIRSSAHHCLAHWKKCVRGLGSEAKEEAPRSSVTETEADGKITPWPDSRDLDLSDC
Experiment: binding to huCB2, fold over mock (method not described)

Row | Binder | Fold over mock [fold]
19 | B1 | 0.8

Biological target: T4, GFP-fused huCB1-SMALP (human CB1 in styrene maleic acid lipoparticles) (human, UniProt P21554 1-472)
T4 construct: Prepared as in Luna V. et al. 2018; also called huCB1-GFP-SMALP; wtCB1-SMALP; not shown: GFP fusion
T4 sequence (P21554 whole entry, the tested form may be a part): as the sequence (P21554 whole entry) above
Experiment: flow cytometry, yeast-displayed IgG, GFP MFI

Row | Binder | 100 nM huCB1-SMALP binding (normalized to 10D10) [fold]
20 | B11 | 7.01

Biological target: T3, human cannabinoid receptor type 2 (CB2)
Experiment: fold over mock (Table 14)

Row | Binder | binding result
21 | B12 | no binding
22 | B1 | no binding
23 | B13 | no binding
24 | B11 | no binding

Biological target: T1, mouse CB1
Experiment: fold over mock (Table 14)

Row | Binder | binding result
25 | B12 | no binding
26 | B1 | no binding
27 | B13 | no binding
28 | B11 | no binding

Biological target: T5, huCB1 nanodisc (CB1-ND) (human, UniProt P21554 99-414)
T5 construct: The His-tagged CB1 is embedded in a POPC lipid nanodisc with MSP1D1 scaffold protein (molar ratio 480:8:1); also called huCB1-ND; #CB1-008
T5 sequence (P21554 99-414 limits assumed): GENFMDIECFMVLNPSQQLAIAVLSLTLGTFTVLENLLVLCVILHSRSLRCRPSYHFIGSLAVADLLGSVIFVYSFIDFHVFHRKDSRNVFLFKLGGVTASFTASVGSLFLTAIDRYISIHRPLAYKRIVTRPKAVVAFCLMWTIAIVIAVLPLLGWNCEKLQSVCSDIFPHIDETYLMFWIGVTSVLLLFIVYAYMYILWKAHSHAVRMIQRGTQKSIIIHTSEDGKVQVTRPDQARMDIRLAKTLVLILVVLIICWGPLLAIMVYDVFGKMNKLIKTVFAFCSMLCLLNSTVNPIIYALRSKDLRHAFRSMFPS
Experiment: flow cytometry, yeast-displayed Fab, 0.2 nM CB1-ND, after background subtraction

Row | Binder | Relative binding fold change compared to LIBC528116 (Fab) [fold]
29 | B3 | 3.34
30 | B4 | 1.89
31 | B6 | 2.23
32 | B7 | 2.4
33 | B8 | 2.52
34 | B9 | 3.56

Biological target: T6, His-tagged huCB1-ND (human CB1 in nanodisc) (human)
T6 construct: CB1 construct of Cell 167(3) (2016) 750-762 expressed in Sf9 cells; POPC:MSP1D1:CB1 480:8:1; also called CB1-nanodisc; huCB1-Nanodisc; not shown: histidine purification tag
T6 sequence (P21554 99-414): as the sequence (P21554 99-414 limits assumed) above
Experiment: flow cytometry, yeast-displayed IgG, binding/display ratio

Row | Binder | 0.200 nM huCB1-Nanodisc binding (relative to 10D10N35Y) [fold]
35 | B14 | 5.95
36 | B15 | 4.47
37 | B1 | 6.38
38 | B16 | 8.02
39 | B17 | 6.2
40 | B18 | 4.86
41 | B19 | 5.75
42 | B20 | 4.82
43 | B21 | 5.21

Biological target: T7, empty-ND (nanodisc without CB1)
T7 construct: its only protein is the nanodisc scaffold; also called Empty Nanodisc
Experiment: as above

Row | Binder | 50.0 nM Empty Nanodisc binding (relative to 10D10N35Y) [fold]
44 | B14 | 0.51
45 | B15 | 0.63
46 | B1 | 0.44
47 | B16 | 0.51
48 | B17 | 0.49
49 | B18 | 0.64
50 | B19 | 0.73
51 | B20 | 0.68
52 | B21 | 0.61

Biological target: T4, GFP-fused huCB1-SMALP (human CB1 in …)
Experiment: flow cytometry, yeast-displayed IgG, GFP MFI
Remark: another data set of the same source

Row | Binder | 100 nM huCB1-GFP-SMALP binding (normalized to 10D10N35Y) [fold]
53 | B14 | 4.32
54 | B15 | 3.68
55 | B1 | 6.63
56 | B16 | 3.79
57 | B17 | 8.31
58 | B18 | 4.65
59 | B13 | 5.8
60 | B19 | 3.24
61 | B20 | 4.58
62 | B21 | 4.85

Biological target: T5, huCB1 nanodisc (CB1-ND)
Experiment: Octet BLI; antibody captured by anti-human Fc, CB1-nanodisc in solution, 1:1 model

Row | Binder | Kd [nM]
63 | B2 | 18
